This passage reports Kd, dH and stoichiometry N results from PMC3130059.

The target in assay [1] is dansyl-calmodulin (dansyl-CaM) (bovine) (UniProt P62157). The assay can be described thus: other fluorescence titration; 1 µM dansyl-CaM titrated with Ras protein (GppNHp form); […]; 20 mM HEPES pH 7.4, 150 mM NaCl, 1 mM CaCl2, 1 mM MgCl2; excitation 335 nm, emission at 480 nm.
Assay [2] has as its target full-length K-RasB (unprocessed) (UniProt P01116). The assay can be described thus: ITC; 0.3–0.8 mM CaM in the syringe injected into 20–40 µM Ras protein (GppNHp form) in the cell; […]; 20 mM HEPES pH 7.4, 150 mM NaCl, 1 mM CaCl2, 1 mM MgCl2; single set of identical sites model.
In assay [3] the target is farnesylated K-RasB-K175A (UniProt P01116). The description is as above.
Assay [4] concerns the target H-Ras-(KKKKKK), chimeric H-Ras with the polylysine region of K-RasB at 175-180 (UniProt P01112). The assay is described as above.
A further assay has as its target K-RasB-K175A (UniProt P01116). Described as above.
The target in another assay is farnesylated K-RasB (UniProt P01116). Described as above.

“H-Ras-(KKKKKK), chimeric H-Ras with the polylysine region of K-RasB at 175-180 (from UniProt P01112 1-189) (natural protein)”: the Kd in assay [1] is 2.53 µM.
Regarding “calmodulin (CaM), Ca^2+-saturated, from bovine brain (from UniProt P62157 1-149) (natural protein)”, the dH in assay [2] came to 3.63 kcal/mol; in assay [3] it was 1.01 kcal/mol; in assay [4], 6.16 kcal/mol; with K-RasB-K175A it was 2.48 kcal/mol; in the assay with farnesylated K-RasB it was 3.33 kcal/mol. Also, the stoichiometry N in assay [2] turned out to be 0.924; in assay [3] it was 0.972; in assay [4] it was 0.903; with K-RasB-K175A, 0.995; with farnesylated K-RasB it was 1.13. In assay [4], this substance gave a Kd of 3.89 µM.
